In general, Kd refers to the free concentration of one partner at which half of the binding sites on the other are occupied at equilibrium, for simple one-to-one binding. A higher Kd goes with lower affinity.

The target in the experiment is human transferrin receptor-Fc tag standard (human, UniProt P02786 89-760). Kind of experiment: ELISA.
Sequence of human transferrin receptor-Fc tag standard (P02786 89-760): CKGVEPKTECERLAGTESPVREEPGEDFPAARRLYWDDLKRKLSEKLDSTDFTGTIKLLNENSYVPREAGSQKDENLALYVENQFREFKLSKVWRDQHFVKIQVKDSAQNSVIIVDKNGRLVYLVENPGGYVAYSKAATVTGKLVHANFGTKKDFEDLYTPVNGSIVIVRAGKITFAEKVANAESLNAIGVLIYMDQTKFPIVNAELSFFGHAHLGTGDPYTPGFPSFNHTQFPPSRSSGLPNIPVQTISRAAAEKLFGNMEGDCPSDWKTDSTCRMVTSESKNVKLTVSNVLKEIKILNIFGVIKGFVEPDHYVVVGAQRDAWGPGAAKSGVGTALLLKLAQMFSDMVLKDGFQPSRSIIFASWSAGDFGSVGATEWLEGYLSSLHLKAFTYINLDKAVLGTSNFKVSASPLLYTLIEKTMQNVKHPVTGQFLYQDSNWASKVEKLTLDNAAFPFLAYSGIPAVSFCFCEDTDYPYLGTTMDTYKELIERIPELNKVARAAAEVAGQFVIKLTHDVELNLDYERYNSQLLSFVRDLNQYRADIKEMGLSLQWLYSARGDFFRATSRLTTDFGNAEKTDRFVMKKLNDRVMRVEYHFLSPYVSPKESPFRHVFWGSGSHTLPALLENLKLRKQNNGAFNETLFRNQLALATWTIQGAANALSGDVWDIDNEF

B1: huHF_Mutant1-dual (designed binder)
chain: MTTASTSQVRQNYHAASEAAINAQINLELYASYVYLSMSYYFDRDDVALKNFAKYFLHQSHEEREHAEKLMKLQNQRGGRIALADIQKPDCDDGGSYGSLYAFDIWESGLNAMECALHLEKNVNQSLLELHKLATDKNDPHLCDFIETHYLNEQVKAIKELGDHVTNLRKMGAPESGLAEYLFDKHTLGDSDNESMPSFITLASLSTWEGYFDF
B1: binding was put at a Kd of 182 nM.

The values are drawn from patent US20240218030A1 (published 2024).
